Assay [1] has as its target T1, human FcRn (AlphaLISA FcRn Human Binding kit, Perkin Elmer AL3095C) (human, UniProt P55899 24-297; P61769 21-119, limits assumed).
T1 construct: kit reagent, construct not described
The experiment in a line: AlphaLISA FcRn Human Binding kit (competition). The protocol: (§1) FcRn Binding Assays—The ability of the activatable immunocytokines to bind to FcRn receptor was performed following manufacturer's instructions using the AlphaLISA FcRn Human Binding kit, Perkin Elmer, Cat #AL3095C. An analogous protocol was performed husing mouse FcRn.
(In Alpha technology, singlet oxygen from a donor bead excites a nearby acceptor bead.)

In another assay the target is T2, mouse CD64 (mouse, UniProt P26151 25-297, limits assumed).
T2 construct: construct not described; also called mouse FcgR I (CD64)
T2 sequence (looked up): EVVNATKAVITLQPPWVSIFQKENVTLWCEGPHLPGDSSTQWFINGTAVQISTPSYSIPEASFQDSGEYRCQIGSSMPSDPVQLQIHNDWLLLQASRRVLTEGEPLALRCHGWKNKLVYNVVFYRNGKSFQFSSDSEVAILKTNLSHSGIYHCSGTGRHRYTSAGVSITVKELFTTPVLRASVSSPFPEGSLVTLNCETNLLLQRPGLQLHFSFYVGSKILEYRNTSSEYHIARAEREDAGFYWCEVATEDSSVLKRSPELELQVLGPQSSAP
The experiment in a line: ELISA, analogous protocol with mouse CD64. Background: An ELISA detects its analyte on a solid surface through an enzyme-linked reagent.

For assay [2], the target named is T3, recombinant biotinylated PD1/CD279 protein (Biolegend 789406) (human, UniProt Q15116 25-167, limits assumed, biotinylated).
T3 construct: also called human PD1
The experiment in a line: ELISA, test molecule coated, biotinylated PD-1 titrated, streptavidin-HRP. As to the method:
Plates were then washed four times with 100 μl of PBS-0.2% Tween20 (wash buffer). […] Plates were then washed four times with 100 μl of wash buffer. […] Plates were then washed four times with wash buffer. […] Plates were then washed four times with 100 μl of wash buffer. Fifty microliters of TMB substrate reagent (#CL07, Merck, Buchs, Switzerland) were added to each well and incubated at 37° C. during 5 min. After 5 min at 37° C., Horseradish peroxidase reaction was stopped by adding 50 μl/well of 0.5M H₂SO₄ stop solution. ELISA signal was then measured at 450 nm on an EnSpire plate reader from Perkin Elmer (Schwerzenbach, Switzerland).

Assay [3] deals with T4, recombinant Human Fc gamma RI/CD64 Protein (R&D systems, 1257-FC-050) (human, UniProt P12314 16-288).
T4 construct: also called human FcgR I (CD64); FcγRI
The experiment in a line: ELISA, test molecule coated, human CD64 titrated. The protocol:
FcγRI (CD64) Binding Assays—The interaction of the activatable immunocytokines with human Fc gamma receptors I (FcγRI/CD64) was measured by ELISA. Briefly, Corning high-binding half-area plates (Fisher Scientific, Reinach, Switzerland) were coated overnight at 4° C. with 25 μl of immunocytokines at […] in PBS. Plates were then washed four times with 100 μl of PBS-0.2% Tween20 (wash buffer). Plates surfaces were blocked with 25 μl of PBS1% BSA at 37° C. for 1h. Plates were then washed four times with wash buffer. Then twenty-five microliters of either recombinant Human Fc gamma RI/CD64 Protein (R&D systems, 1257-FC-050, CF) was added in serial dilutions into PBS-T-0.1% BSA and incubated at 37° C. for 2h. Plates were then washed four times with 100 μl of wash buffer. Twenty-five microliters of Streptavidin-Horseradish peroxidase (#RABHRP3, Merck, Buchs, Switzerland) diluted into PBS-T-0.1% BSA were added to each well and incubated at Room Temperature for 1h. Plates were then washed four times with wash buffer. TMB substrate reagent (#CL07, Merck, Buchs, Switzerland) were added to each well and incubated for 5 min. After 5 min, Horseradish peroxidase reaction was stopped by adding 1M H2SO4 stop solution. ELISA signal was then measured at 450 nm on a plate reader.

The target in the next assay is T5, mouse FcRn (mouse, UniProt Q61559 22-297; P01887 21-119, limits assumed).
T5 construct: construct not described
T5 sequence (looked up): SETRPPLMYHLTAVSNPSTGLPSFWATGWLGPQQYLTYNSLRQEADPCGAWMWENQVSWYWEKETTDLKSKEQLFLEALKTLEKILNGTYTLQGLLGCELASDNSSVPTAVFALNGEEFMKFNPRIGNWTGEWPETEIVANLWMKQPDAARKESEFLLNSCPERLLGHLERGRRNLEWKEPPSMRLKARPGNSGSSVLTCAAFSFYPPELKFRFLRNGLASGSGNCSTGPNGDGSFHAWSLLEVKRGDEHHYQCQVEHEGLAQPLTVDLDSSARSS
T5 sequence (b2m, looked up): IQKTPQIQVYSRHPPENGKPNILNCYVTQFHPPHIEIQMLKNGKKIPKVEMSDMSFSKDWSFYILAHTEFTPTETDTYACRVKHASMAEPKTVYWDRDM
The experiment in a line: analogous AlphaLISA protocol with mouse FcRn. As to the method: as §1

Assay [4] addresses human PD-1 on Jurkat T cells (PD-1/PD-L1 Blockade Bioassay) (human, UniProt Q15116 25-288). The experiment in a line: cell-based or functional assay.
Assay [5] addresses T6, recombinant human IL-2 receptor beta containing a His-tag and Avi-Tag (R&D Systems #AVI10459) (human, UniProt P14784 27-239).
T6 construct: bought protein, held on the Octet SAX2 sensor; also called CD122; IL-2Rβ
T6 sequence (looked up): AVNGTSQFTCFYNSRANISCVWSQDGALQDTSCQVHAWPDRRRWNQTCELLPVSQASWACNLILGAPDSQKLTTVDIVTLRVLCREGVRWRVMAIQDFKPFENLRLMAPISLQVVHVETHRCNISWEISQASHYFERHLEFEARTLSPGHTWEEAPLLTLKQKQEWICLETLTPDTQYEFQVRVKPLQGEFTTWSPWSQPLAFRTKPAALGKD
The experiment in a line: BLI (Octet), receptor on SAX2 sensor, IL-2 as analyte; construct CMP-151, macrocyclic activatable IL-2 polypeptide. The protocol: (§2) Bilayer interferometry (BLI) assays were used to measure the binding constants between activatable IL-2 polypeptides (and activated versions thereof) to IL-2 receptor subunits or receptor complexes. BLI assays were conducted on an Octet® R8 instrument. Assay plates were 96 well, polypropylene, F-bottom (chimney well), black microplates (Greiner Bio-one, Cat. No: 655209). The biosensors were Octet® SAX2 (Sartorius, Cat. No: 18-5136). The assay buffer was 1× Kinetic Buffer (Sartorius, Cat. no: 18-5136) or Phosphate Buffered Saline (PBS) that contained 0.02% (v: v) Tween 20 (Polysorbate 20) and 0.1% (w/v) bovine serum albumin (BSA). The sensor was regenerated between measurements in 10 mM glycine pH 2.7 buffer.
(§3) Sensor attached receptors were either recombinant human IL-2 receptor beta containing a His-tag and Avi-Tag™ (R&D Systems™ #AVI10459) or an Avi-Tag™ Fc with human IL-2R beta and IL-2R gamma attached (Acrobiosystems Cat. no: ACRB-ILG-H82F3-25UG). Receptors were reconstituted from lyophilized powder to 500 μg/ml in PBS. Analytes were diluted in Kinetic buffer to 300 nM, then serially diluted to lower concentrations.
For orientation: In BLI a coated tip is dipped into the sample, and binding shifts an interference pattern.

In assay [6] the target is T7, IL-2 receptor βγ complex on pan T cells (human, UniProt P14784 27-551; P31785 23-369).
T7 sequence (looked up) 1: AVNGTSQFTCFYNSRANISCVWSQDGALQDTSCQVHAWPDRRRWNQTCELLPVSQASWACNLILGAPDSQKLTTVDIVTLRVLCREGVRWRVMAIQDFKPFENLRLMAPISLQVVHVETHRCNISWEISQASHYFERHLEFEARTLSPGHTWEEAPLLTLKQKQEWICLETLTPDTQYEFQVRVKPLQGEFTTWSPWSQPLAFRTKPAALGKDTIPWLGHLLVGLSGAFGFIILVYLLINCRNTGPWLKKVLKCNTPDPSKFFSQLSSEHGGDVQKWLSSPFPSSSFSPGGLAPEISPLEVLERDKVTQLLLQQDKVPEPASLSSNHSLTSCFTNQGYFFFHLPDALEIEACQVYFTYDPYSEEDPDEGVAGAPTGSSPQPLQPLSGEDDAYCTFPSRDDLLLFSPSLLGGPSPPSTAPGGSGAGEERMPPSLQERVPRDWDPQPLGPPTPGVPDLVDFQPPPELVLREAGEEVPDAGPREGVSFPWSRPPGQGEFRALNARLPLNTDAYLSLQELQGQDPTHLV
T7 sequence (looked up) 2: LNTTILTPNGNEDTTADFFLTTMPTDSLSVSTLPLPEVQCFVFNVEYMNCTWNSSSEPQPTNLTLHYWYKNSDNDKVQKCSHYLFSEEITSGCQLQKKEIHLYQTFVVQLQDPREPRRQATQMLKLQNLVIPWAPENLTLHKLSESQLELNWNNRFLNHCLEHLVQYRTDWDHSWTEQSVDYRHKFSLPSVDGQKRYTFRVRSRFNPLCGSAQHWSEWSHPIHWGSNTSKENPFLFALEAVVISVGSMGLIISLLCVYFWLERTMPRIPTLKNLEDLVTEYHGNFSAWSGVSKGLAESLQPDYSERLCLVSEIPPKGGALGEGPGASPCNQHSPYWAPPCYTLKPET
The experiment in a line: cell-based or functional assay.

The target of assay [7] is T8, Avi-Tag Fc with human IL-2R beta and IL-2R gamma attached (Acrobiosystems ACRB-ILG-H82F3-25UG) (human, UniProt P14784 27-239; P31785 23-262).
T8 construct: bought heterodimer; also called CD122 CD132; CD122/CD132 complex
T8 sequence (looked up) 1: T6 sequence (looked up)
T8 sequence (looked up) 2: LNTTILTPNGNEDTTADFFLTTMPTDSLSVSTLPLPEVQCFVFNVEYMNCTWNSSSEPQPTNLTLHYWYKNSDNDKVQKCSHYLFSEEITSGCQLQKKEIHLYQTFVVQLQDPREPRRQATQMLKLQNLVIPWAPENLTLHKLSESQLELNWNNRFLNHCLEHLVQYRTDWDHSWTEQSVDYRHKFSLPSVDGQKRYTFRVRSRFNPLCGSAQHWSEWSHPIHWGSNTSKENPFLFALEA
The experiment in a line: BLI (Octet), receptor on SAX2 sensor, IL-2 as analyte. The protocol:
as §2, §3

The target of assay [8] is T6, recombinant human IL-2 receptor beta …. Description: BLI (Octet), receptor on SAX2 sensor, IL-2 as analyte; construct CMP-145. As to the method: as §2, §3
For assay [9] the target is unchanged. Description: BLI (Octet), receptor on SAX2 sensor, IL-2 as analyte. As to the method:
as §2, §3

For assay [10] the target is unchanged. The experiment in a line: BLI (Octet), receptor on SAX2 sensor, IL-2 as analyte; construct CMP-168, intact (not the MMP2-treated row r13). The protocol: as §2, §3
Assay [11] addresses T7, IL-2 receptor βγ complex on pan T cells. Description: cell-based or functional assay. The source holds these as a separate data set.

Where two headings read alike, the source gives them in different places. Bridges are numbered along the chain shown (N, C = ends). [ ]: non-standard residue; d: D form. Ygp = O-(8x polyethylene glycol-amino)-tyrosine; Yn3 = O-(9x polyethylene glycol-azido)-tyrosine; hSer = N[C@@H](CCO)C(=O)O; Nle = CCCC[C@H](N)C(=O)O

B1: LZM-009 (antibody, human IgG4 S228P, kappa)
heavy: not shown
light: EIVLTQSPATLSLSPGERATISCRASKGVSTSGYSYLHWYQQKPGQAPRLLIYLASYLESGVPARFSGSGSGTDFTLTISSLEPEDFATYYCQHSRELPLTFGTGTKVEIKRTVAAPSVFIFPPSDEQLKSGTASVVCLLNNFYPREAKVQWKVDNALQSGNSQESVTEQDSKDSTYSLSSTLTLSKADYEKHKVYACEVTHQGLSSPVTKSFNRGEC
notes: unconjugated anti-PD-1 IgG4; also called LZM-009 Intact
The molecule B1 gave a concentration for half-maximal inhibition (IC50) in assay [1] of 5.79 nM. The EC50 was 554 nM with mouse CD64, 0.05 nM in assay [2], 0.32 nM in assay [3] and 0.77 nM in the assay with mouse FcRn. For the same molecule, the “Mean EC50, PD1/PD-L1 blockade (NFAT-RE luciferase reporter)” value in [4] came to 7.34 nM.

B2: CMP-151 (ligand)
chain: APTSSSTKKTQLQLEHLLLDLQKILNGINNYKNPKLTR[Nle]L[hSer][Yn3]KF[Ygp][Nle]PKKATELKHLQCLEEELKPLEEVL[hSer]LAQSKNFHLRPRDLISNINVIVLELKGSETTF[hSer]CEYADETATIVEFLNRWITFSQSIISTLT
modifications: disulfide 58-105; bridge N-23; not fully specified (bridges)
Regarding B2, the Kd in assay [5] amounted to 65.4 nM. Also, the “Average EC50, pSTAT5 assay in pan T cells, intact molecule” value in [6] turned out to be 28.2 nM.

B3: CMP-145 (ligand)
chain: APTSSSTKKTQLQLEHLLLDLQKILNGINNYKNPKLTR[Nle]L[hSer][Yn3]KF[Ygp][Nle]PKKATELKHLQCLEEELKPLEEVL[hSer]LAQSKNFHLRPRDLISNINVIVLELKGSETTF[hSer]CEYADETATIVEFLNRWITFSQSIISTLT
modifications: disulfide 58-105; not fully specified (residue 23); also: branched 27x PEG chains on the attached KKPLGLAG peptide, places not given here
For the molecule B3, the koff in assay [7] is 0.00117 s⁻¹. Besides, the Kd in assay [8] came out at 1830 nM.

B4: CMP-168 (ligand)
chain: APTSSSTKKTQLQLEHLLLDLQEILNGINNYKNPKLTR[Nle]L[hSer][Yn3]KF[Ygp][Nle]PKKATELKHLQCLEEELKPLEEVL[hSer]LAQSKNFHLRPRDLISNINVIVLELKGSETTF[hSer]CEYADETATIVEFLNRWITFSQSIISTLT
modifications: disulfide 58-105 (inferred); bridge 9-23; not fully specified (residue 23, bridges)
In [7], B4 gave a dissociation constant (Kd) of 136 nM, an off-rate (koff) of 0.0022 s⁻¹ and an on-rate (kon) of 16200 M⁻¹ s⁻¹. Moreover, in assay [9], the off-rate (koff) was determined as 0.0721 s⁻¹ and the kon was found to be 2880 M⁻¹ s⁻¹. Moreover, the Kd in assay [10] was 25100 nM. For the same molecule, in assay [11], the “Average EC50, pSTAT5 assay in pan T cells, intact molecule” value was found to be 144 nM.

The term IC50 denotes the concentration that inhibits the measured activity by half. Read a low IC50 as higher potency. By EC50 is commonly meant the concentration needed to bring the measured effect to its halfway point. What is called Kd is the concentration at which binding is half-saturated. In general, koff refers to the first-order rate constant of dissociation. As usually defined, the kon is the rate constant with which the complex forms.

(Values after patent US20240417436A1 (BRIGHT PEAK THERAPEUTICS, published 2024).)
